In PMC2192373:

Target: Taxol-stabilized microtubules prepared from pure bovine tubulin (bovine) (UniProt Q6B856)
Experiment: co-sedimentation

GST-DmINCENP (full-length Drosophila inner centromere protein fused to GST) (natural protein)
percent of the added protein that cosediments: 64%
